Measurements taken from patent US20240400621A1, “PEPTIDES FOR METABOLIC SYNDROME” (ALPARIS, S.A. de C.V., priority 2021, published 2024).

Tests used:
[1] = biological target: human Toll-like receptor 2 (hTLR2) on HEK-Blue hTLR2 cells (human (printed as hTLR2), UniProt O60603 21-784); assay: cell-based or functional assay
[2] = Body weight of mice on high-fat diet (DAG) with intragastric peptide for 12 weeks; assay type: in vivo, mice (C57BL/6JN)
Method: (§1) For all the in vivo testing, male mice of the C57BL/6JN strain between 8 to 10 weeks of age were used, housed in groups of 3 to 5 mice per cage with food and water ad libitum in ventilated racks, and whose microbiota were unified for 4 weeks.
(§2) The mice received either 200 μL of a phosphate buffer solution (PBS) at pH 7.5 (as a vehicle), or 200 μL of the PBS solution, with each of the intragastric treatments daily for 12 weeks. They were fed either a Normal Diet (DN, Harlan, Teklad 2018SX) with 18% of the calories coming from fat, or a High-Fat Diet (DAG, Research Diets, D12491), with 60% of the calories coming from fat.
All the mice were randomly divided into five experimental groups in order to study the effect of SEQ ID NO: 3 and SEQ ID NO: 2 correctly: • Group 1—Mice with DN that received 200 μl of PBS intragastrically. • Group 2—Mice with DAG that received 200 μl of PBS intragastrically. • Group 3—Mice with DAG that received 200 μl of PBS with SEQ ID NO: 3 intragastrically at a dose of: 2.5 μg/mouse. • Group 4—Mice with DAG that received 200 μl of PBS with SEQ ID NO: 2 intragastrically at a dose of 0.6 μg/mouse (high dose). • Group 5—Mice with DAG that received 200 μl of PBS with SEQ ID NO: 2 intragastrically at a dose of 0.2 μg/mouse (low dose).
The animal weights and feed intakes were recorded weekly.
To determine the metabolic status of the animals before starting the experiment, weight, basal glucose levels, glucose tolerance, and insulin resistance were recorded.

[3] = tested on: mice fed a high-fat diet; assay: Glucose tolerance test (GTT) in mice fed a high-fat diet; assay type: in vivo, mice (C57BL/6JN); settings: 12 weeks; intragastric daily; SEQ ID NO: 3 2.5 μg/mouse, SEQ ID NO: 2 0.6 or 0.2 μg/mouse
Method: as §1
as §2, with “fat. […]” for “fat.”
The mice were subjected to fasting for 6 hours, and the baseline glucose values in the blood were determined using glucose test strips and a glucometer (Roche's ACCU-CHECK ACTIVE).
Next, the mice received an intraperitoneal injection of 1.8 mg of glucose per gram of body weight, and the blood glucose values were recorded at 15, 30, 60, and 120 minutes after administration.
FIGS. 19A and 19B show the area under the curve (AUC) of the glucose tolerance test of the mice, measured at week 0 and 12.

[4] = tested on: mice fed a high-fat diet; assay: Insulin resistance test (PRI) in mice fed a high-fat diet; assay type: in vivo, mice (C57BL/6JN); settings: 12 weeks; intragastric daily; SEQ ID NO: 3 2.5 μg/mouse, SEQ ID NO: 2 0.6 or 0.2 μg/mouse
Method: as §1
as §2, with “fat. […]” for “fat.”
The mice were subjected to fasting for 6 hours and the baseline glucose values were determined, as described above. Subsequently, the mice received an intraperitoneal injection of 1 mU of insulin per gram of body weight, and blood glucose values were recorded at 15, 30, 60, and 120 minutes after administration. The area under the curve (AUC) of the insulin resistance test was calculated considering the glucose decrease between time T0 and T15 using the absolute glucose values, as shown in FIGS. 20A and 20B.

[5] = tested on: TNFα; assay: Circulating TNFα levels in mice fed a high-fat diet; assay type: in vivo, mice (C57BL/6JN); settings: 12 weeks; versus DAG; including SEQ ID NO: 2 at low doses
Method: as §1
as §2, with “fat. […]” for “fat.”
To determine the effect of the peptides SEQ ID NO: 2 and SEQ ID NO: 3 in attenuating the inflammatory process in adipose tissue, the cellular infiltrate of the adipose tissue of the mice was quantified after they had been fed DAG.

Sequence of human Toll-like receptor 2 (hTLR2) on HEK-Blue hTLR2 cells (O60603 21-784): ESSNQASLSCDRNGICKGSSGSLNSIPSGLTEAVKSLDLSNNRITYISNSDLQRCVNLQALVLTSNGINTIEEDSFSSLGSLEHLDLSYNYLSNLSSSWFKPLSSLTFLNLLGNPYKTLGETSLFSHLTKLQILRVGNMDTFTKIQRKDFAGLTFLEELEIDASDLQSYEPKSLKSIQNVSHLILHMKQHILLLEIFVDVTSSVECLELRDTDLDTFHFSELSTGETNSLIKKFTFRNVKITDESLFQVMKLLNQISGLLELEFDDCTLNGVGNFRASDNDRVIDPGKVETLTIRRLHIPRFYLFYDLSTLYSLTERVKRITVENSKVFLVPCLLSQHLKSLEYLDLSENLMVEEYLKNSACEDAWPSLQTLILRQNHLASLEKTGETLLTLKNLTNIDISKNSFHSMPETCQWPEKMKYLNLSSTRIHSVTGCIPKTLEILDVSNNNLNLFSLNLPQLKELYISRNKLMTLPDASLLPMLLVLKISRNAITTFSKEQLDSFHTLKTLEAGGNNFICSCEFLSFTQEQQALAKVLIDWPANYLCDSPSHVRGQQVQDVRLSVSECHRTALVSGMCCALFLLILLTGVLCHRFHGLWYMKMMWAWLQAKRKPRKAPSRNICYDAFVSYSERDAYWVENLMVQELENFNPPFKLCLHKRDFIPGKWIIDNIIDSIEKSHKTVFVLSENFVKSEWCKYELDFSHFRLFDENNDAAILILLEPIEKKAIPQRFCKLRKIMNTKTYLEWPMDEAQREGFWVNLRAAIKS

B1: peptide SEQ ID NO: 3 (carboxyl terminal domain of SEQ ID NO: 1) (peptide)
chain: QLPIETPANNPEESDEADQAPWTPMPLEIAFQGDRESVLKAMNAITGMQDYLFTVNSIRIRNERMMPPPIANPAAAKPAAAQPATGAASLTPADEAAAPAAPAIQQVIKPYMGKEQVFVQVSLNLVHFNQPKAQEPSED
With B1 the “EC50” value [1] was 25.9 nM, the Average weight ([2]; 0 weeks (initial state), DAG + SEQ ID NO: 3 group) was 21.4 grams and the Average weight ([2]; 12 weeks, DAG + SEQ ID NO: 3, 2.5 μg/mouse intragastric daily) was 37.9 grams. For the same molecule, the “glucose tolerance (AUC of GTT) versus DAG group” value [3] was “improved glucose tolerance”, the “insulin sensitivity (AUC of insulin resistance test) versus DAG group” value [4] was “improve insulin sensitivity” and the “circulating levels of TNFα” value [5] was “prevented the increase in the circulating levels”.
